Results taken from publication PMC8988006, “Structural and biochemical characterization of the prenylated flavin mononucleotide-dependent indole-3-carboxylic acid decarboxylase” (The Journal of Biological Chemistry, 2022).
Residue numbers refer to the chain shown, from its start.

Experiments:
[1] = test system: T1, O=C(O)c1c[nH]c2ccccc12; experiment: purified protein; type: biochemical, Glutamicibacter nicotianae; conditions: prFMN-reconstituted enzyme, Mn2+, 50 mM potassium phosphate pH 6.5, 50 mM KCl, room temperature, apparent because active enzyme (prFMN) content is unknown
T1 construct: His6-tagged (C-terminal in pET30a or N-terminal in pET28a), E. coli BL21(DE3), Ni-NTA, ~50 kDa by SDS-PAGE, hexamer, reconstituted with prFMN and Mn2+

[2] = biological target: indole-3-carboxylate decarboxylase from Arthrobacter nicotianae (Arthrobacter nicotianae); experiment: crystal structure; AnInD at ca 15 mg/ml, sitting drop vapor diffusion, PACT screen condition G5, 20 °C; crystals soaked with prFMN; space group P2_(1); whole hexamer in the asymmetric unit
[3] = biological target: indole-3-carboxylate decarboxylase from Arthrobacter nicotianae (Arthrobacter nicotianae); experiment: SAXS; HPLC SAXS (Shodex KW-403 column, 0.15 ml/min) on beamline B21, Diamond Light Source; ab initio envelope (DAMMIN/DAMAVER) with the hexamer crystal structure superimposed
[4] = biological target: T2, AnInD (indole-3-carboxylic acid decarboxylase) (Glutamicibacter nicotianae, UniProt Z9P359VB74, D169A); experiment: end point HPLC decarboxylation assay; type: biochemical; conditions: prFMN-reconstituted; 50 mM potassium phosphate pH 6.5, 10 mM I3C, 2 μM enzyme
T2 construct: His6-tagged (C-terminal in pET30a or N-terminal in pET28a), E. coli BL21(DE3), Ni-NTA, ~50 kDa by SDS-PAGE, hexamer, reconstituted with prFMN and Mn2+
T2 sequence (Z9P359VB74 2-461 D169A): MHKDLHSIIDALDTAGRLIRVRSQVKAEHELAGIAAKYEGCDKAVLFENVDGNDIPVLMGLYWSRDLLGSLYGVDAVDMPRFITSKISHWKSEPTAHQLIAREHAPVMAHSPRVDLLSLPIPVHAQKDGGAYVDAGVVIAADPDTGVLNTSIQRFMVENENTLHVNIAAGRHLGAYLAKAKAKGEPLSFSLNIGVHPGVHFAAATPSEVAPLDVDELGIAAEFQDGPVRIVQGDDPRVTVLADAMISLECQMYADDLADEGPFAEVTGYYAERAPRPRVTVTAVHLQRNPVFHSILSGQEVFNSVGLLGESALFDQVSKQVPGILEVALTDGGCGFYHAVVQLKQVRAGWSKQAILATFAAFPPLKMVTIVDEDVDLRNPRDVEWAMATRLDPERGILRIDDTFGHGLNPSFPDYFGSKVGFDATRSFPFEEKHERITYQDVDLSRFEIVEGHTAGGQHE

[5] = biological target: T3, AnInD (indole-3-carboxylic acid decarboxylase) (Glutamicibacter nicotianae, UniProt Z9P359VB74, D169V); experiment: end point HPLC decarboxylation assay; type: biochemical; conditions: prFMN-reconstituted; 50 mM potassium phosphate pH 6.5, 10 mM I3C, 2 μM enzyme
T3 construct: His6-tagged (C-terminal in pET30a or N-terminal in pET28a), E. coli BL21(DE3), Ni-NTA, ~50 kDa by SDS-PAGE, hexamer, reconstituted with prFMN and Mn2+
T3 sequence (Z9P359VB74 2-461 D169V): T2 sequence (Z9P359VB74 2-461 D169A) with A168V

[6] = biological target: T4, SrCAR (Seginiliparous rugosus carboxylic acid reductase) (Segniliparus rugosus, UniProt E5XP76); experiment: one-pot cascade with AnInD, HPLC; type: biochemical; conditions: I3C formed in situ from indole + NaHCO3 by AnInD; ATP, NADPH, Mn2+, Mg2+; potassium phosphate, 30 °C
T4 construct: gene car
T4 sequence (E5XP76 1-1188): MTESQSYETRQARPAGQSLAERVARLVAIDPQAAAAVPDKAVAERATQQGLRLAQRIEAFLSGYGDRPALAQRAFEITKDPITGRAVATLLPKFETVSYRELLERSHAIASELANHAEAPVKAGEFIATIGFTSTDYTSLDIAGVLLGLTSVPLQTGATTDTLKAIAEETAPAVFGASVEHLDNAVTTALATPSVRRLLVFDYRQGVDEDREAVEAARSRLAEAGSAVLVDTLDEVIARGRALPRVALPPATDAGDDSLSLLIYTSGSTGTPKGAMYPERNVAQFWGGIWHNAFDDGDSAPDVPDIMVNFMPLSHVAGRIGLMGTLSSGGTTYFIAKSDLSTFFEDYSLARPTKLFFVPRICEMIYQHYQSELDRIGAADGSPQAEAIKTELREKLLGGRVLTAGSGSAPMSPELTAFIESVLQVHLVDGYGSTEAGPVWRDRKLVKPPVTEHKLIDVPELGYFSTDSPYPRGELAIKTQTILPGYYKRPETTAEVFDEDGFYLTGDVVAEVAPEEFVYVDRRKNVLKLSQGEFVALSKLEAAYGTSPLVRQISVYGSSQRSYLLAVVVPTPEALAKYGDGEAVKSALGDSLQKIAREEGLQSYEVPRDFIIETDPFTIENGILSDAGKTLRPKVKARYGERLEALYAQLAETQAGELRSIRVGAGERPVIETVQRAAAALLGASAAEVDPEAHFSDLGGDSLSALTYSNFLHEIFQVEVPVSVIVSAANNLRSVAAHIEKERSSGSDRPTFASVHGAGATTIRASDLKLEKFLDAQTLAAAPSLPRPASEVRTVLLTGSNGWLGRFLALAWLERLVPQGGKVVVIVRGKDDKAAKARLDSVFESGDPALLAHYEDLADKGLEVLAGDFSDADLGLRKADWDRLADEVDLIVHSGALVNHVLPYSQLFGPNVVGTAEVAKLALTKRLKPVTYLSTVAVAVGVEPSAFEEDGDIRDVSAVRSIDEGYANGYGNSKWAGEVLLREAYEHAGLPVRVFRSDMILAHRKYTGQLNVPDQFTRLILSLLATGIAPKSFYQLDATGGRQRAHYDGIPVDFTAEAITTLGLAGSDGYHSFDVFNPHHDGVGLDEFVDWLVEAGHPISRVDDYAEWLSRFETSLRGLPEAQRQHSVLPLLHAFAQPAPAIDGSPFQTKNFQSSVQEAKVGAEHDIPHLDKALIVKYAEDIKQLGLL

[7] = biological target: T5, AnInD (indole-3-carboxylic acid decarboxylase) (Glutamicibacter nicotianae, UniProt Z9P359VB74, D169L); experiment: end point HPLC decarboxylation assay; type: biochemical; conditions: prFMN-reconstituted; 50 mM potassium phosphate pH 6.5, 10 mM I3C, 2 μM enzyme
T5 construct: His6-tagged (C-terminal in pET30a or N-terminal in pET28a), E. coli BL21(DE3), Ni-NTA, ~50 kDa by SDS-PAGE, hexamer, reconstituted with prFMN and Mn2+
T5 sequence (Z9P359VB74 2-461 D169L): T2 sequence (Z9P359VB74 2-461 D169A) with A168L

AnInD (indole-3-carboxylic acid decarboxylase) (Glutamicibacter nicotianae)
Km [1]: 790 µM
kcat [1]: 4.4 (±0.3) s^−1

indole-3-carboxylate decarboxylase from Arthrobacter nicotianae (enzyme)
stoichiometry N [2]: 6
stoichiometry N [3]: 6

O=C(O)c1c[nH]c2ccccc12 [I3C, indole-3-carboxylic acid]
activity [4]: All AnInD D169X variants were found to be severely affected in activity
activity [5]: All AnInD D169X variants were found to be severely affected in activity
one-pot cascade with AnInD, HPLC [6]: These assays revealed the formation/production of indole-3-carboxyaldehyde
activity [7]: All AnInD D169X variants were found to be severely affected in activity
